As usually defined, the stoichiometry N is a count of units in the complex or per binding partner.

The target of the experiment is M. tuberculosis LamA (MmpS3, Rv2198c) fused to a 3X-FLAG tag at the carboxy terminus (M. tuberculosis). Briefly: SDS-PAGE with western blot.

As for “M. tuberculosis LamA (MmpS3, Rv2198c) fused to a 3X-FLAG tag at the carboxy terminus (natural protein)”, the stoichiometry N came to 2.

Values taken from publication PMC12421883.
